{"source": "paper PMC4975007", "biological_target": "Dbp2 (MBP-TEV-Dbp2 construct) (Saccharomyces cerevisiae, UniProt P24783 1-546)", "sequence (P24783 whole entry)": "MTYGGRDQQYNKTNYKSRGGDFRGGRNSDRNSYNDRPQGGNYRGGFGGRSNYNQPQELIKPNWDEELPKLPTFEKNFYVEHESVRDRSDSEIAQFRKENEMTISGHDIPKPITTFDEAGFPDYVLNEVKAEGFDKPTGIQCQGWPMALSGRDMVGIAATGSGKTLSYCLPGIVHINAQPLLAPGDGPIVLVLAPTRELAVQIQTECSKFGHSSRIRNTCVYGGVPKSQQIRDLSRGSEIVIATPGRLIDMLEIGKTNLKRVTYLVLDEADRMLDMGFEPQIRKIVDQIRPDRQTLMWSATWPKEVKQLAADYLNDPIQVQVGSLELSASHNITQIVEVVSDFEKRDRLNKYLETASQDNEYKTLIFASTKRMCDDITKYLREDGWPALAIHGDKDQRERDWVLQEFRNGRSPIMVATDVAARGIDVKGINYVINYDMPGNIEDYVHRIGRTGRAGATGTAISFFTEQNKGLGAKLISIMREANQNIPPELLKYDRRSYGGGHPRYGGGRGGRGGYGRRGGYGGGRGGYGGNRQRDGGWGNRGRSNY", "assay": "fluorescence anisotropy", "data": [{"binder": "AGCACCGUAAAGACGC (ssRNA)", "note": "[16 nt ssRNA, 6-FAM]", "values": [{"measurement": "Kd", "result": 38, "unit": "nM"}]}]}
